From the supplement of paper PMC9732359
± gives the uncertainty stated by the source.

Assay: protein stability index of a GFP-peptide fusion (yeast GPS) (PSI 1-4); higher = more stable; sorted into four equal gates, so the index is relative within each strain
Procedure, shortened: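 Plasmids in a pooled yeast library fused tiled 17-residue yeast protein peptides downstream of GFP and also expressed Cherry. Mid-log cultures grown without leucine were sorted into four equal gates by GFP/Cherry fluorescence ratio. Each gate's plasmids were PCR-amplified and Illumina-sequenced, and reads were matched to strains by barcodes. The protein stability index is derived by multiplying each gate's read frequency by its gate number and summing the results.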

| Sequence | protein stability index (doa10∆) | protein stability index (pdr5∆) | protein stability index (san1∆) | protein stability index (ubr1∆) |
| --- | --- | --- | --- | --- |
| IPMSKTIKDLVGGKSTV [FAS2] | 2.96 ± 0.11 | 2.8 ± 0.089 | 2.85 ± 0.072 | 3.04 ± 0.06 |
| MGSRRYDSRTTIFSPEG [PRE9] | 3.36 ± 0.2 | 3.01 ± 0.17 | 2.89 ± 0.19 | 3.06 ± 0.15 |
| SNTIDELSTDIILKTRQ [SRB7] | 2.96 ± 0.076 | 3.19 ± 0.083 | 3.18 ± 0.089 | 3.03 ± 0.063 |
| ESTTEATGNESQDATKV [YLR335W/NUP2] | 3.04 ± 0.071 | 3.23 ± 0.081 | 3.12 ± 0.11 | 3.21 ± 0.075 |
| PHELTESVLPAARYDYA [QCR2] | 2.22 ± 0.061 | 1.92 ± 0.046 | 2.09 ± 0.081 | 1.92 ± 0.044 |
| KSSLYSAQDLLDKHERK [YIL149C/MLP2] | 3.05 ± 0.084 | 3.01 ± 0.075 | 2.83 ± 0.11 | 3.15 ± 0.036 |
| YEEFRDVAIENNTLSRY [RRP43] | 3.24 ± 0.042 | 3.25 ± 0.043 | 3.178 ± 0.029 | 3.2 ± 0.035 |
| LRYYKNIWLNNKIINWE [NUT1] | 3.56 ± 0.18 | 2.67 ± 0.087 | 2.2 ± 0.22 | 3.39 ± 0.16 |
| IDGCVKIGDLGLARKFH [SSN3] | 2.98 ± 0.078 | 3.33 ± 0.08 | 3.14 ± 0.058 | 3.37 ± 0.043 |
| LIFIACNDEDKDLETLY [ECM29] | 3.11 ± 0.084 | 3.04 ± 0.067 | 2.3 ± 0.089 | 2.92 ± 0.035 |
| SGTYHLNCGNGMGIGFI [POP1] | 3.07 ± 0.077 | 2.93 ± 0.063 | 2.44 ± 0.077 | 3.11 ± 0.041 |
| FNAPATGNGTTTTSNTS [YOR098C/NUP1] | 2.44 ± 0.034 | 2.83 ± 0.035 | 2.8 ± 0.035 | 2.836 ± 0.027 |
| RIVGSELIQKYLGDGPR [RPT2] | 2.21 ± 0.14 | 3.14 ± 0.16 | 3.33 ± 0.27 | 3.11 ± 0.13 |
| KRAEKAARKAEKAKSAG [RPL24B] | 2.91 ± 0.073 | 2.48 ± 0.051 | 1.55 ± 0.087 | 2.92 ± 0.04 |
| LETLFNRWHSESWANQL [FAS2] | 2.81 ± 0.055 | 2.89 ± 0.076 | 2.87 ± 0.055 | 3.02 ± 0.056 |
| AQFRVPRYHSKNSFQQA [SWP82] | 2.5 ± 0.075 | 2.57 ± 0.065 | 2.37 ± 0.083 | 2.62 ± 0.047 |
| SKEGQYKAKIKELENNL [YIL149C/MLP2] | 2.75 ± 0.12 | 1.49 ± 0.053 | 2.18 ± 0.13 | 3.03 ± 0.069 |
| ISEKDLVPKRCLFESLS [RPO31] | 2.59 ± 0.12 | 3.38 ± 0.15 | 2.94 ± 0.16 | 3.03 ± 0.095 |
| CSHIFTSDQKNKRTQFS [RPB9] | 2.52 ± 0.058 | 2.72 ± 0.052 | 2.47 ± 0.068 | 2.53 ± 0.043 |
| ISNKDVIFKIRDRTSGQ [SRB4] | 3.42 ± 0.11 | 3.02 ± 0.13 | 3.42 ± 0.077 | 3.14 ± 0.11 |
| SVIPEVDREAMLKPNII [YCG1] | 3.06 ± 0.12 | 3.31 ± 0.14 | 3.08 ± 0.14 | 3.05 ± 0.12 |
| NQSSFNFGNNGAGGLNP [YOR098C/NUP1] | 3.15 ± 0.069 | 3.1 ± 0.076 | 3.2 ± 0.045 | 3.25 ± 0.064 |
| LKTFNGSLALLKLSMAD [POP4] | 2.33 ± 0.046 | 2.33 ± 0.067 | 2.45 ± 0.063 | 2.36 ± 0.036 |
| IKKKRKELFEKTFDYVS [SMC1] | 3.16 ± 0.12 | 3.07 ± 0.099 | 3.09 ± 0.12 | 3.13 ± 0.084 |
| APIKKIIERYIKSKADA [PRP8] | 3.11 ± 0.12 | 3.24 ± 0.12 | 2.98 ± 0.079 | 3.13 ± 0.11 |
| TKEELESDGRMFIEEPT [SRP54] | 2.58 ± 0.091 | 3.11 ± 0.14 | 2.96 ± 0.099 | 2.71 ± 0.055 |

| Sequence | protein stability index (doa10∆) | protein stability index (pdr5∆) | protein stability index (san1∆) | protein stability index (ubr1∆) |
| --- | --- | --- | --- | --- |
| NSEYLKRRVTNLEFNYT [SMC2] | 2.38 ± 0.066 | 2.27 ± 0.1 | 2.5 ± 0.091 | 2.49 ± 0.084 |
| SFYDAIFFNIPLVAHLG [YJL039C/NUP192] | 1.73 ± 0.037 | 1.23 ± 0.042 | 2.02 ± 0.027 | 1.22 ± 0.034 |
| LIELLTQMDGFDQSTNV [RPT3] | 2.33 ± 0.088 | 2.19 ± 0.075 | 1.56 ± 0.15 | 2.05 ± 0.08 |
| RAQEEVKRIQSVPLVIG [RPT3] | 3.52 ± 0.13 | 3.16 ± 0.15 | 3.04 ± 0.11 | 3.21 ± 0.066 |
| ILVDSLTGNQLPTPTPT [SWI1] | 2.73 ± 0.066 | 2.76 ± 0.073 | 2.93 ± 0.048 | 2.73 ± 0.045 |
| DDNNNNNNNNNNNNSTR [GRR1] | 2.95 ± 0.045 | 3.02 ± 0.042 | 2.95 ± 0.041 | 3.03 ± 0.054 |
| GAFTIALAYAGTGNNSA [RPN2] | 2.09 ± 0.068 | 2.32 ± 0.083 | 1.99 ± 0.099 | 2.15 ± 0.053 |
| VTNALDNIDEKVVKAIR [NUT1] | 3.04 ± 0.16 | 2.37 ± 0.14 | 3.07 ± 0.083 | 1.61 ± 0.048 |
| VQEMALGGPITKESQPT [FAS2] | 2.78 ± 0.099 | 2.72 ± 0.078 | 2.87 ± 0.065 | 3.01 ± 0.05 |
| TRFEVELEFIQSLANIQ [SOH1] | 2.15 ± 0.082 | 2.29 ± 0.061 | 2.14 ± 0.1 | 2.5 ± 0.058 |
| NDANITSNKEGFNSIWK [SSN2] | 3.17 ± 0.077 | 3.26 ± 0.079 | 3.3 ± 0.051 | 3.09 ± 0.069 |
| EESIRESLQKRELLKSQ [SIR3] | 3.13 ± 0.063 | 3.32 ± 0.068 | 3 ± 0.056 | 3.12 ± 0.059 |
| KTATVKINKKLNKAGKP [RPL38] | 2.73 ± 0.17 | 3.21 ± 0.11 | 3.22 ± 0.098 | 3.19 ± 0.1 |
| SPTPIQRITIPNVCNMK [PRP28] | 1.99 ± 0.074 | 2.16 ± 0.063 | 2.04 ± 0.068 | 2.09 ± 0.057 |
| TIPILESDSKATLQSNE [DSN1] | 2.8 ± 0.12 | 2.16 ± 0.11 | 2.36 ± 0.16 | 2.67 ± 0.081 |
| NRTLYELADLPKLKRIG [GRR1] | 2.88 ± 0.049 | 2.87 ± 0.037 | 2.8 ± 0.042 | 3.02 ± 0.042 |
| EGLSAQIAFDLVSSASQ [RPN2] | 2.6 ± 0.068 | 3.05 ± 0.075 | 2.67 ± 0.1 | 2.62 ± 0.039 |
| FEGVTHRWGTKKLPRKT [RPL3] | 3.31 ± 0.11 | 2.98 ± 0.13 | 3.11 ± 0.082 | 3.34 ± 0.061 |
| DDEPTTPAELVGKFLGY [FAS1] | 3.51 ± 0.13 | 3.34 ± 0.14 | 3.16 ± 0.08 | 3.2 ± 0.12 |
| YLAKELNLTGPKVPEDI [RPN1] | 3.26 ± 0.23 | 3.24 ± 0.27 | 2.38 ± 0.24 | – |
| QLFSTFDRLNGNDTISK [SSN2] | 3.03 ± 0.15 | 3.02 ± 0.087 | 3.19 ± 0.076 | 2.96 ± 0.048 |
| IFEISLQRKDYTSIVQC [YML103C/NUP188] | 1.76 ± 0.051 | 1.75 ± 0.048 | 2.05 ± 0.12 | 1.88 ± 0.052 |
| TATAATNGNNAGGGSNK [MED6] | 3.23 ± 0.12 | 3.41 ± 0.085 | 3.27 ± 0.11 | 3.46 ± 0.1 |
| ADKIVDEFPELKEPVED [NUT2] | 3.71 ± 0.15 | 3.52 ± 0.11 | 3.23 ± 0.27 | 3.63 ± 0.14 |
| AAESKKYRQTKLSKEER [RPL5] | 3.1 ± 0.23 | – | 3.05 ± 0.22 | 3.06 ± 0.26 |
| KIMNVTTDSLTKVLQAD [YMR129W/POM152] | 3.25 ± 0.068 | 3.05 ± 0.068 | 3.12 ± 0.04 | 3.23 ± 0.064 |
